Among the data in patent US20220073608A1 (JIANGSU HUAIYU PHARMACEUTICAL, published 2022) are MFI and OD450 nm values, retold here.

First the molecules themselves.
T1: mouse SEMA4D, full length, on CHO-K1 cells (CHO-K1 mSEMA4D) (mouse, UniProt O09126 24-861)
T1 construct: whole, on cells; also called murine SEMA4D recombinant cells
T1 sequence (looked up): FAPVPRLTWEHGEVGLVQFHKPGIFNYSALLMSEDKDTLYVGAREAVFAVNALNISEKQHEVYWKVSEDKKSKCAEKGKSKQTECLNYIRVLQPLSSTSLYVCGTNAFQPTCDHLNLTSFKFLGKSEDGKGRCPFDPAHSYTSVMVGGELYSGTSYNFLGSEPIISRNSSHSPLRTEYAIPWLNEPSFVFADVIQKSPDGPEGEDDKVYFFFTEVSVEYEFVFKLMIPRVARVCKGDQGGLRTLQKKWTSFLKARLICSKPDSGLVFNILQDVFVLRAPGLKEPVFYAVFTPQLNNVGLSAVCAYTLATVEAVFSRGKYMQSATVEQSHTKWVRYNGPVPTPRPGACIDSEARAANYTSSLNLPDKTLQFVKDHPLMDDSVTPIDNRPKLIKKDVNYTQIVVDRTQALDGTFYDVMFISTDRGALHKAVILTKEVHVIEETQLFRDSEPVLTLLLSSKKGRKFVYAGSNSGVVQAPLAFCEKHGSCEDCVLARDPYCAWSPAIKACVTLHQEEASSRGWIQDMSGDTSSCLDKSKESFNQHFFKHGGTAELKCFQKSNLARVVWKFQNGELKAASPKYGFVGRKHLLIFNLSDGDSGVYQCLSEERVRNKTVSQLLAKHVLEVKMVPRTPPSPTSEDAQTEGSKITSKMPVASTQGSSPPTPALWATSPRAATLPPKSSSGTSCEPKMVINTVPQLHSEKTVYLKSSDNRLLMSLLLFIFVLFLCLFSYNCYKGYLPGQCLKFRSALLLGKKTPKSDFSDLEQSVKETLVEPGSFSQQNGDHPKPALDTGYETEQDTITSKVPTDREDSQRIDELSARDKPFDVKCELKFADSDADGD

T2: hSEMA4D ECD-His (His-tagged human SEMA4D protein extracellular domain, Met22-Arg734) (human, UniProt Q92854 22-734)
T2 construct: Expressed in CHO-S cells, purified on Ni column; also called protein immunogen; immunogen A; not shown: His tag of the pCP vector
T2 sequence: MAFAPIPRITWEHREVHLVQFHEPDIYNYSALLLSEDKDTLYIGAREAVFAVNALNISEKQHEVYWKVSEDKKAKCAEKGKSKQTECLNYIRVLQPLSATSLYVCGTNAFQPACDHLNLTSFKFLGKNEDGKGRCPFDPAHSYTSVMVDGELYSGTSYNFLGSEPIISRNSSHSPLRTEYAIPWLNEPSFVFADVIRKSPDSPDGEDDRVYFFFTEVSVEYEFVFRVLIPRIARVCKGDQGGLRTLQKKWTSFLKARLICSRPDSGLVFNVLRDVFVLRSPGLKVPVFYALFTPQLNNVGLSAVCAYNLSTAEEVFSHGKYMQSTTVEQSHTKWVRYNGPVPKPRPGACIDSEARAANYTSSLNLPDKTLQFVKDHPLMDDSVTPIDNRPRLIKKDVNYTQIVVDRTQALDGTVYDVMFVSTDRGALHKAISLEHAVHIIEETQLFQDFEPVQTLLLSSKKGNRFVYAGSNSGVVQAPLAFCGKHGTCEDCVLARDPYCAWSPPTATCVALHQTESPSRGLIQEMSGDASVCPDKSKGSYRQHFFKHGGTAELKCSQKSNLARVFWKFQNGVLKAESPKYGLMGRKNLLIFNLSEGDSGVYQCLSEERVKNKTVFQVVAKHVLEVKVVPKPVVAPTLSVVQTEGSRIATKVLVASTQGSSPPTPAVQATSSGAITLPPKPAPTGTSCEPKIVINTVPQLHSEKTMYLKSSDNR

B1: 37C4F7 (antibody, V domains shown)
VH: EFQLQQSGPEVVKPGASVKISCKASGYSFTDYNMNWMKQSKGKSLEWIGVINPNYGTTTYNQNFKGKATLTVDQSSSTAYMQLNSLTSEDSAVYYCARDMYYVYAYYTMDYWGQGTSVTVSS
VL: DVVMTQTPLSLPVSLGDQASISCRSSQSLVHSNGHTYLHWYLQRPGQSPTLLIYKVSNRFSGVPDRFSGSGSGTDFTLKISRVEAEDLGVYFCSQGTHVPWTFGGGTKLEIK
notes: Mouse monoclonal antibody purified from hybridoma supernatant on protein A
B2: 38H2E3 (antibody, V domains shown)
VH: B1 VH with N52S, N54D, G66D, R98K, Q114H
VL: B1 VL with F67V, W101R
notes: as for B1
B3: 32C8F10 (antibody, V domains shown)
VH: EVQLQQSGAELVRPGASVKLSCTASGFNIKDEYIHWVKQRPEQGLEWIGWIDPANGHTEYASRFQAKATITADTSSNTAYLQLSSLTSEDTAVYYCTTGDYDGFAYWGQGTLVTVST
VL: QIVLTQSPAIMSASPGEKVTISCSARSSVSYMYWYQQKPGSSPKPWIYRTSNLASGVPARFSGSGSGTSYSLTISSMEAEDAATYYCQHYHTYPYTFGGGTKLEIK
notes: as for B1
B4: 31G10C5 (antibody, V domains shown)
VH: B3 VH with E32D, T58I, R63N, A105T
VL: B3 VL
notes: as for B1
B5: 31C11G2 (antibody, V domains shown)
VH: B3 VH with A105V
VL: B3 VL with S22F
notes: as for B1
B6: 37F11F9 (antibody, V domains shown)
VH: EVQLQQSGPVLVKPGASVKMSCKASGYTFTDYYMNWVKQSHGKSLEWIGLINPYSGGSTFNQKFKAKATLTVDKSSSSAYMDLNSLTSEDSAVYYCARVGDGYYGVTHGMDYWGQGTSVTVSS
VL: DIVMTPSQKFMSTTVGDRVSITCKASQNVGTAVAWYQQKPGQSPTILIYSASNRYTGVPDRFTGSGSGTDFTLTISNMKSEDLADYFCQQYYIYPFTFAAGTKLELK
notes: as for B1
B7: 42B7G2 (antibody, V domains shown)
VH: QVQLQQSGAELARPGASVKLSCKASGYTFTDYGISWVKQRTGQGLEWIGEIYLRNDNSYYNEKFKGKATLTADKSSNTAYMELRSLTSEDSAVYFCARWGDHGNNYEDAMDYWGQGTSVTVSS
VL: DIVLTQSPASLAMSLGKRATISCRASESVSIIGSNLIHWYQQKPGQPPKLLIYHASNLETGVPARFSGSGSRTDFTLTIDPVEEDDVAIYYCLQSRKVPYTFGGGTKLEIK
notes: as for B1

Positions count from the first letter of the chain named.

The first test has as its target T1, mouse SEMA4D, full length, on CHO-K1 …. The test can be described thus: FACS, CHO-K1 mSEMA4D cells; Ab 0.107 nM. As for the experimental part:
After the cells were counted, they were diluted with PBS to 2×10⁶ cells per milliliter. After washing, 100 μL of diluted and purified leading antibodies was added to each well and the plate was incubated for 1 hour on ice. […] Cells were washed 2 times by centrifugation with FACS buffer. The cells were suspended with 200 μL of FACS buffer, FACS (FACS Verse, purchased from BD) was used to detect and analyze the results.
Background: A flow cytometer gives signals particle by particle.
With B1, the MFI amounted to 30.1.

B2 displayed an MFI of 30.5.

For the molecule B3, the MFI stood at 30.2.

For B4, the MFI came out at 29.6.

In turn, B5 showed an MFI of 30.6.

B6 yielded an MFI of 29.7.

Regarding B7, the MFI amounted to 30.4.

The target in another test is T2, hSEMA4D ECD-His (His-tagged human …). The test can be described thus: ELISA, coated hSEMA4D ECD-His; Ab 0.0533 nM. As for the experimental part:
First, hSEMA4D ECD-His was diluted with PBS to a final concentration of 1.0 μg/mL, and then was added to a 96-well ELISA plate, 100 μL per well, sealed with plastic film and incubated overnight at 4° C. On the next day, the plate was washed with a plate washing solution, that is, PBS buffer containing 0.05% (v/v) Tween20, for 4 times, and added with blocking solution, that is, PBS buffer containing 0.05% (v/v) Tween20 and 2% (w/w) BSA, blocked at 37° C. for 1 hour. The blocking solution was poured out and the plate was washed 4 times with the plate washing solution. 100 μL of the purified leading antibodies obtained in Examples 1 and 2 was added to each well. After incubation at 37° C. for 1 hour, the plate was washed 4 times with a plate washing solution. 100 μL of horseradish peroxidase (HRP) labeled secondary antibody (purchased from Sigma) was added at a dilution of 1:10000 to each well, and the plate was incubated at 37° C. for 1 hour, and washed 4 times with a plate washing solution. 100 μL TMB substrate was added to each well, and the plate was incubated at room temperature for 5 minutes, and added with 100 μL stop solution (1.0N HCl) to each well. A microplate reader (SpectraMax M5e, purchased from Molecular Device) was used to read the A450 nm value. […] Wherein, the data in the table was the OD450 nm value.
For B1, the OD450 nm amounted to 0.162.

In turn, B2 came in with an OD450 nm of 0.194.

The molecule B3 returned an OD450 nm of 0.551.

B4 yielded an OD450 nm of 0.526.

In turn, B5 returned an OD450 nm of 0.817.

B6 registered an OD450 nm of 0.365.

For the molecule B7, the OD450 nm worked out at 0.696.
